From article doi:10.1101/508887 (bioRxiv, 2018)

Target: T1, KIF1C-SNAPf-3XFLAG, full-length KIF1C (human, UniProt O43896 1-1103, TMR via the SNAP-tag (in the TIRF assays))
T1 sequence: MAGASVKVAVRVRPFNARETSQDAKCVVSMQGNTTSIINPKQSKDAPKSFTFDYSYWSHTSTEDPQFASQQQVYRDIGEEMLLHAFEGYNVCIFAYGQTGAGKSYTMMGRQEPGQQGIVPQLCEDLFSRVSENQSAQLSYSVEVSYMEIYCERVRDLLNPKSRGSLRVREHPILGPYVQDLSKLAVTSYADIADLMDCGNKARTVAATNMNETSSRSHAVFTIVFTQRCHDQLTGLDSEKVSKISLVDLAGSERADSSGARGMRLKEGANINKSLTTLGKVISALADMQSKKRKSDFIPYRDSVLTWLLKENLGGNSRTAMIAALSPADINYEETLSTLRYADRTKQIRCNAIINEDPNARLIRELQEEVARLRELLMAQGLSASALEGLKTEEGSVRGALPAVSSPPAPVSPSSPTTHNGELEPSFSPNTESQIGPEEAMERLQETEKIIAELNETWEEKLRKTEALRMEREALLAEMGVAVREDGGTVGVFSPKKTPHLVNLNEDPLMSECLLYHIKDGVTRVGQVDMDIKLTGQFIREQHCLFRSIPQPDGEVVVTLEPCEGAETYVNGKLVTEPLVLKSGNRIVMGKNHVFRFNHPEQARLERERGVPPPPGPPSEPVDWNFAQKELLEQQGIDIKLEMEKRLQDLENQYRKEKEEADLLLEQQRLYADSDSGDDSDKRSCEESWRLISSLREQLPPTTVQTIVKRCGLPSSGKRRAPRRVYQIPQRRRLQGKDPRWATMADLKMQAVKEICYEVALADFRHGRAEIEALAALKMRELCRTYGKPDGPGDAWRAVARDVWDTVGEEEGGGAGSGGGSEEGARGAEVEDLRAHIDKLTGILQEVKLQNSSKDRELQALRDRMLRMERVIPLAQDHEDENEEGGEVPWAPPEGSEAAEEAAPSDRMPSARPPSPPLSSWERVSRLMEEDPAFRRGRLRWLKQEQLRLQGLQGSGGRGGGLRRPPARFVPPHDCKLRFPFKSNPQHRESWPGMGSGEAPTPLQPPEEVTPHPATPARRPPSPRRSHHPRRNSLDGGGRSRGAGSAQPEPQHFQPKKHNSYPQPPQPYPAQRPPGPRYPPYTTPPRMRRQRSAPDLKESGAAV
Experiment: single-molecule three-colour TIRF colocalisation on microtubules

B1: Halo-HOOK3(1-718)-3XFLAG, full-length HOOK3 (natural protein)
chain: MFSVESLERAELCESLLTWIQTFNVDAPCQTVEDLTNGVVMAQVLQKIDPAYFDENWLNRIKTEVGDNWRLKISNLKKILKGILDYNHEILGQQINDFTLPDVNLIGEHSDAAELGRMLQLILGCAVNCEQKQEYIQAIMMMEESVQHVVMTAIQELMSKESPVSAGNDAYVDLDRQLKKTTEELNEALSAKEEIAQRCHELDMQVAALQEEKSSLLAENQVLMERLNQSDSIEDPNSPAGRRHLQLQTQLEQLQEETFRLEAAKDDYRIRCEELEKEISELRQQNDELTTLADEAQSLKDEIDVLRHSSDKVSKLEGQVESYKKKLEDLGDLRRQVKLLEEKNTMYMQNTVSLEEELRKANAARSQLETYKRQVVELQNRLSEESKKADKLDFEYKRLKEKVDSLQKEKDRLRTERDSLKETIEELRCVQAQEGQLTTQGLMPLGSQESSDSLAAEIVTPEIREKLIRLQHENKMLKLNQEGSDNEKIALLQSLLDDANLRKNELETENRLVNQRLLEVQSQVEELQKSLQDQGSKAEDSVLLKKKLEEHLEKLHEANNELQKKRAIIEDLEPRFNNSSLKIEELQEALRKKEEEMKQMEERYKKYLEKAKSVIRTLDPKQNQGAAPEIQALKNQLQERDRLFHSLEKEYEKTKSQREMEEKYIVSAWYNMGMTLHKKAAEDRLASTGSGQSFLARQRQATSSRRSYPGHVQPATAR
modifications: Alexa-488 via the HaloTag (in the TIRF assays)
Does B1 bind?
Result: binds
